How the values were obtained:
carbonyl reductase [1] = assay: NADH-dependent 3,4-dimethoxyphenylacetone-reducing activity; type: biochemical, Torulaspora delbrueckii; conditions: substrate 5 mM, coenzyme NADH, pH 6.5, 30° C.
Method: (§1) The enzyme obtained in Example 1 was reacted with various ketones, ketoesters, and soon. The activities of the reduction reactions were expressed as relative activities, where the reduction of 3,4-dimethoxyphenylacetone was regarded as 100 (Table 2) (substrate specificity of carbonyl reductase). The activity of dehydrogenating 1-(3,4-dimethoxyphenyl)-2-propanol was measured as follows: A reaction was performed at 30° C. in a reaction solution comprising 50 mM Tris-HCl buffer (pH 8.5), 2.5 mM NADP^+, 5 mM 1-(3,4-dimethoxyphenyl)-2-propanol, and the enzyme. An increase in absorbance at 340 nm, accompanying NADPH production, was measured. 1 U was defined as the amount of enzyme catalyzing the production of 1 μmol NADPH per minute. In addition, the activity of reducing NADH-dependent 3,4-dimethoxyphenylacetone was measured as follows: A reaction was performed at 30° C. in a reaction solution comprising 50 mM potassium phosphate buffer (pH 6.5), 0.2 mM NADH, 5 mM 3,4-dimethoxyphenylacetone, and the enzyme, and decrease in absorbance at 340 nm, accompanying decrease in NADH, was measured. 1 U was defined as the amount of enzyme catalyzing a decrease of 1 μmol NADH per minute.

carbonyl reductase [2] = assay: Substrate specificity: NADPH-dependent reduction by the carbonyl reductase obtained in Example 1; type: biochemical, Torulaspora delbrueckii; conditions: substrate 5 mM, coenzyme NADPH; reduction of 3,4-dimethoxyphenylacetone regarded as 100
Method: (§2) A reaction solution comprising 50 mM potassium phosphate buffer (pH 6.5), 0.2 mM NADPH, 5 mM 3,4-dimethoxyphenylacetone, and an enzyme is reacted at 30° C. Any decrease in absorbance at 340 nm accompanying a decrease in NADPH is measured. 1U is defined as the amount of enzyme which catalyzes a 1 μmol decrease of NADPH in one minute.
as §1

[3] = Enzymatic synthesis of (S)-1-(3,4-dimethoxyphenyl)-2-propanol: optical purity and reaction yield; type: biochemical; conditions: 0.25 U carbonyl reductase, 50 mM 3,4-dimethoxyphenylacetone, overnight, 25° C., pH 6.5
Method: A reaction was performed overnight at 25° C. in 1 mL of a reaction solution comprising 200 mM potassium phosphate buffer (pH 6.5), 1 mM NADP^+, 2 U glucose dehydroganase (Wako Pure Chemical Industries, Ltd.), 250 mM glucose, 0.25 U carbonyl reductase, and 50 mM 3,4-dimethoxyphenylacetone. The optical purity of the produced (S)-1-(3,4-dimethoxyphenyl)-2-propanol was measured as follows: One mL of ethyl acetate was added to 0.5 mL of the reaction solution to extract (S)-1-(3,4-dimethoxyphenyl)-2-propanol, and the extraction solvent was desolvated. 0.5 mL of a dissolving solution (n-hexane: isopropanol=4:1) was then added to dissolve the extract, which was then analyzed by liquid chromatography using an optical resolution column. CHIRALCEL OF (4.6 mm×25 cm; Daicel Chemical Industries, Ltd.) was used as the optical resolution column. Chromatography was performed with a wavelength of 220 nm, a flow rate of 1.0 mL/min, and at 40° C. using an eluting solution of n-hexane: isopropanol=4:1.
In addition, the (S)-1-(3,4-dimethoxyphenyl)-2-propanol thus-produced was quantified using gas chromatography, and a yield relative to the raw starting material, 3,4-dimethoxyphenylacetone, was obtained. Specifically, the analysis was performed at a column temperature of 210° C., using Thermon 3000 (10%)-Chromosorb W (AW-DMCS, Mesh 60–80; 3.2 mm×210 cm) with a hydrogen flame ionization detector (FID). The resulting reaction yield was about 95%.
To prepare crude enzyme solution for enzyme reaction, the crude enzyme solution prepared in Example 18 was concentrated ten-folds using a UF membrane. This solution was reacted overnight at 25° C. in 1 mL of a reaction solution comprising 200 mM potassium phosphate buffer (pH 6.5), 1 mM NADP^+, 2 U glucose dehydrogenase (Wako Pure Chemical Industries, Ltd.), 250 mM glucose, 0.2 U homolog enzyme, and 50 mM 3,4-dimethoxyphenylacetone. Optical purity was measured and the produced (S)-1-(3,4-dimethoxyphenyl)-2-propanol was quantified as in Example 6. As a result, YGL157w (pSE-YGP7) produced 93.7% ee (S)-1-(3,4-dimethoxyphenyl)-2-propanol at a yield of 66%, YGL039w (pSE-YGD9) produced 93.6% ee at a yield of 94%, and YDR541c (pSE-YDR1) produced 94.8% ee at a yield of 6%.

[4] = 3,4-dimethoxyphenylacetone-reducing activity of the purified enzyme (specific activity, pH and temperature dependency); type: biochemical, Torulaspora delbrueckii; conditions: 3,4-dimethoxyphenylacetone reduction, NADPH, pH 6.5, 30° C.
Method: as §2
The specific activity of the purified enzyme was 196 mU/mg.
By changing the pH using potassium phosphate buffer, sodium acetate buffer, and Britton-Robinson buffer, the 3,4-dimethoxyphenylacetone-reducing activity of the enzyme obtained in Example 1 was investigated. Activity at each pH was expressed as a relative activity, where the maximum activity was regarded as 100 (FIG. 2). Optimal pH (showing 80% or more relative activity) was 5.5 to 6.5.
Of the standard reaction conditions, only the temperature was changed, and the 3,4-dimethoxyphenylacetone-reducing activity of the enzyme obtained in Example 1 was then measured. Activity at each temperature was expressed as a relative activity, where the maximum activity was regarded as 100 (FIG. 3). Optimal temperature (showing 80% or more relative activity) was 50° C. to 55° C.

COc1ccc(CC(C)=O)cc1OC [3,4-Dimethoxyphenylacetone]
Relative activity (carbonyl reductase [1]): 0.0%
Relative activity (carbonyl reductase [2]): 100%

B1: carbonyl reductase: NADPH-dependent carbonyl reductase purified from Torulaspora delbrueckii JCM 5921; amino acid sequence SEQ ID NO: 2 (protein, listed as Torulaspora delbrueckii)
chain: MSILVSGATGFIALHVVSDLLKQDYKVIGTVRSQEKADKLRKQFGNNPNLSFELVSDIAAPEAFDKVFQKHGKDIKVVLHTASPFTLETTNYEKDLLLPAVNGTKSILESIKKYAADSVERVVITSSYAAVMNVSKEGDGSIVYTEKDWNPATWENCQIDGLNAYCGSKKLAEKAAWDFFEDNKNVVKFKLSMINPTYVFGPQLFDEDVKDKLNTSCELINSIIKNNPQVGYLLENIKGHFVDVRDVAKAHLVAFQKDEAIGQRLLTSNGRFAYQDLVDIINEDFPQLKGKVIVGKPGAGKQLYGTFPDINNTRSKEILGFEFISLHKSVHDTAAQVLKKEGKL
Optical purity of the produced (S)-1-(3,4-dimethoxyphenyl)-2-propanol [3]: ≥ 99 % ee
Reaction yield relative to 3,4-dimethoxyphenylacetone [3]: about 95%
Specific activity of the purified enzyme [4]: 196 mU/mg
